Laboratory results published in the MegaScale stability set (Tsuboyama et al. 2023).

B1: r11_951_TrROS_Hall (parent)
chain: KKKYVIKVYFEDTGKEVEIEAESKEEALEAAKRLAEELGLKIKKVEIYP

Variants of: B1
Experiment: folding stability dG (cDNA display proteolysis); higher = more stable
Conditions: PBS, room temperature

Folding stability dG [kcal/mol] of substitutions, site by site:
I47: P 4.04, H 4.35, Y 4.47, L 4.48, V 4.33, W 4.49, D 3.99, Q 4.25, F 4.32, E 4.33, C 4.13, K 3.7, R 3.79, N 3.89, G 4.06, S 4.24, T 4.17
E36: L 4.68, A 4.62, D 4.42, I 4.61, S 4.53, V 4.66, Q 4.66, G 4.6, M 4.66, R 4.91, H 4.56, F 4.76, C 4.39, T 4.6, K 4.54, P 3.05
A35: D 2.58, L 3.88, N 3.14, K 3.58, Q 3.9, F 4.13, H 3.63, P 2.83, E 4.05, T 3.84, V 4.06, S 4.35, R 3.55, Y 3.78, W 4.13, I 3.99, M 3.97, C 4.08, G 4.25
K44: W 4.24, H 4.47, D 3.95, S 4.42, V 4.17, N 4.41, P 2.69, G 4.12, R 4.4, T 4.17, L 4.14, M 4.31, A 4.26, C 4.11, F 4.3, E 4.25, Y 4.34, Q 4.34, I 4.21
R33: Y 4.63
K41: F 4.44, C 4.33, T 4.32, W 4.11, I 4.19, E 4.16, S 4.41, Y 4.5, P 4.25, G 4.07, Q 4.02, N 4.28, R 4.62, L 4.36, M 4.38, A 4.33, D 4, V 4.34, H 4.22
G39: F 4.14, I 3.67, R 4.43, N 4.39, T 4, M 4.38, Y 3.82, S 4.26, C 4.25, K 4.53, H 4.31, W 3.5, P 2.73, E 4.18, D 3.99, A 4.49, V 4.03, Q 4.37, L 4.06
P49: Q 4.71, L 4.62, C 4.52, K 4.5, I 4.72, G 4.49, M 4.69, V 4.45, F 4.6, R 4.5, A 4.33, D 4.59, T 4.62, H 4.93, S 4.62, Y 4.78, N 4.68, E 4.66, W 4.59
Y48: M 4.4, T 4.52, A 4.25, H 4.44, V 4.45, D 4.13, P 4.09, S 4.2, K 4.2, C 4.46, Q 4.37, N 4.45, G 4.33, L 4.44, F 4.64, E 4.1, R 4.36, W 4.51, I 4.43
I42: K 2.18, L 4.32, T 2.88, S 2.64, G 2.51, A 3.21, M 3.99, F 4.01, Q 2.53, P 3.23, V 4.17, H 2.67, N 2.55, C 3.57, R 2.53, E 2.5, D 2.38, W 4.05, Y 3.75
